Assay results taken from article PMC8196545 (Cell reports, 2021).

B1: c13155 (antibody, V domains shown)
VH: DVQLLESGGGLVQPGGSLRLSCAGSGYPFSTSDMGWVRQAPGKGLEWVAAIGRSGDGIHYAESVKGRFTISRDNSNNSIYLQMSDLRGDDTGVYYCAKSGWGWCKRGSCSLTVDYWGQGALVTVSS
VL: EIVLTQSPATLSLSPGERATFSCRASQSVGSYLAWYQQKVGQSPRLLIYDSVNRGEGIPGRFSGRGVGTDFTLTIDAVEPEDFAVYYCQQRQIWPLTFGGGTKLEIK
B2: c8553 (antibody, V domains shown)
VH: QVQLVQSGAEMKMPGSSVKVSCKTSGGTFGSDSLNWVRQAPGQGLEWMGAIIPVFRTATYAQKFQGRVTITADTSTSTVSMDFYNLKSEDTAVYFCARFLLTSGDDIRDFFDLWGPGTMVTVSS
VL: PSELTQDPAVSVPLGQTVKISCRGDNLGTYYTSWYQQKAGQAPLAVIYGDNKRPSEIPERFSGSSSGNTASLTITGARAEDEADYYCNSRDKSGSHVVFGGGTKLTVL
B3: c7484 (antibody, V domains shown)
VH: AVHLTQSGTEVKRPGTSVRISCKGSGFVFRDSFIYWLRQAPGKGPQYLGLIDPGNADTVYPDNFKDRVSITADTSVSTTYLELRRLQFDDTALYFCATTTYCSADSCELALDVWGQGTTVTVSS
VL: QSLLTQPPSASGAPGQSVTISCSGGASNIENNYVVWYQQVPGTAPKLIIYQDNVRPSGVPDRFSGSKSGASGSLLISGLRSEDEADYYCSSWDDSVRGPLFGGGTKVTVL
B4: c8595 (antibody, V domains shown)
VH: QVKLQESGPGLVKPSETLSLTCVVSGVSISQSDYFWNWLRQTPGKGLEWLGFISYSGDTFFNPSLESRLGMSVDTSSNHISLSLKSMTAADAAVYYCARTFCDDVKCYPLFDSWGHGKLVAVSS
VL: DIVMTQSPDSLPLSPGERASINCQSSQSVLYSSDNRNYLAWYQLKPGQPPKLLIYWASVRASGVPDRFSGSGSGTDFTLSISSLQAEDVAVYYCQQYYITPYSFGQGTKVEIR
B5: c8517 (antibody, V domains shown)
VH: QVTLKESGPTLLRPADTLTLTCNFSGFSLTTDGVALGWMRQSPGKAPEWLAFLFYDDDKQYNPHLKSRLIISKASSTNQLVLAMTNMGPGDAGTYFCARLNVLVHDVPPRNYGLDVWGRGITITVSS
VL: DIVLTQSPVSLSVTPGQSASMSCKSSETLLHEDGKSYLYWYLQKPGQSPQLLIYEASKRFSGVSDRFTASGTGTHFTLQIDRVEVDDVGVYYCMENLKALTFGGGTRMEIK
B6: c8582 (antibody, V domains shown)
VH: QVHLVQSGAEVKKPGSSVKVSCKASGGSFSDYGISWVRQAPGQGLEWMGGIIPGFETTKFAQGLQGRLTMTADESSSTAYMVLNRLRPQDTGVYYCATTGQQNDYYSSGTSYKLNFYFGMDVWGQGTTVTVSS
VL: QSVLTQPPSSSGTPGQRVTITCSGGSSNIETNSVHWYQQLPGAAPKTVISATHQRPSGVPDRFSASKSGASASLAISGLQSEDEADYYCAVWDDSLNTWVFGGGTKLTVL
B7: c2785 (antibody, V domains shown)
VH: QVQLVQSGAEMKKPGSSVKVSCKASGGSFRSFTVNWVRQAPGQGLEWVGRIIAIFGSVDYAQKFQGRVTISADESTSTFYMDIRSLKSEDTAVYYCVRDGLVGGRDFWGQGTQVTVSS
VL: EIVLTQSPGTLSLSPGERATLFCRASQSIKKNYVAWYQQNPGQAPRLLIYGASSRATGTPDRFSGSGSGTDFTLTISRLEPEDFAVYYCQQYGSAQYSFGQGTKLEIK
B8: c9368 (antibody, V domains shown)
VH: QMQLVQSGAELKKPGSSVKVSCKASGGTVSSESVSWVRQAPGHGLEWMGGIIPMFGATNYAQRFQGRVTITADTSTSTAYMELRGLKFEDTAMYYCAREGDPGDYDSGRGLSNAFDIWGQGTMVSVSS
VL: EIVMTQSPGTLSVSPGERATLSCRASQSVSSNLAWYQQKPGQAPRLLIYGASTRATGIPARFIGSGSGTEFTLTISSLQSEDLAIYYCQQYNSWPPQYTFGQGTKLEIK

molecular target: HIV-1 NL4-3 Env on infected cells (HIV-1 group M subtype B, NL4-3 (pNL4-3 …, strain))

Row | Binder | binding result
1 | B1 | binds
2 | B2 | binds
3 | B3 | binds
4 | B4 | binds
5 | B5 | binds
6 | B6 | binds
7 | B7 | binds
8 | B8 | binds
